Earlier results in PMC10423694.

Legend:
K48-diUb (Homo sapiens) = K48-diUb (Homo sapiens) (UniProt P0CG47); assay: SPR
K63-diUb (Homo sapiens) = K63-diUb (Homo sapiens) (UniProt P0CG47); assay: SPR
M1-diUb (Homo sapiens) = M1-diUb (Homo sapiens) (UniProt P0CG47); assay: SPR
[1] = target: ubiquitin monomer (Homo sapiens) (UniProt P0CG47); assay: SPR
ubiquitin (Homo sapiens) = ubiquitin (Homo sapiens) (UniProt P0CG47)

Sequence of NEMO (Q9Y6K9 whole entry): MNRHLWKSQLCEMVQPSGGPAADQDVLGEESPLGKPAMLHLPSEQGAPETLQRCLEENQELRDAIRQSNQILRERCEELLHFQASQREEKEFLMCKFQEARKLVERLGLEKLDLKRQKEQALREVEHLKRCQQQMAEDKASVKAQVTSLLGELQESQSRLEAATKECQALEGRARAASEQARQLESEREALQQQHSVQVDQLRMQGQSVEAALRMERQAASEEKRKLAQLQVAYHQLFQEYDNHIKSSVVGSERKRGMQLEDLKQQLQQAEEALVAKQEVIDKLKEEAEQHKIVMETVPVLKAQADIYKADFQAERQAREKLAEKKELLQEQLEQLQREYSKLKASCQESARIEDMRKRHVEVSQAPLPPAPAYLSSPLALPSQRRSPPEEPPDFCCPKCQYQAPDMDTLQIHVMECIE
Sequence of UBQLN2 UBA (Q9UHD9 578-624): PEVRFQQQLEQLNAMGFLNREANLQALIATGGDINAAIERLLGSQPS

## NEMO (from UniProt Q9Y6K9)
K48-diUb (Homo sapiens)
  Kd: 169 µM
K63-diUb (Homo sapiens)
  Kd: 140 µM
M1-diUb (Homo sapiens)
  Kd: 4.5 µM
[1]
  Kd: 152 µM

## UBQLN2 UBA (from UniProt Q9UHD9)
Ubiquitin (Homo sapiens)
  Kd: 8 µM
